Test results as given in the supplement of paper PMC12042874.
± gives the uncertainty stated by the source.

Test: amyloid nucleation score (Sup35N fusion, yeast selection) (log enrichment); library NNK3; higher = more nucleation; inactive = no reads after selection
In short: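 The nucleation score is a DiMSum log enrichment of output over input reads, centred on the mode score of non-aggregating sequences. Sequences under 100 input reads were excluded, and reads came from Illumina sequencing of plasmid inserts. Psi-negative yeast expressing Sup35N fused to peptides of 20 random codons were induced with 100 μM copper sulfate for 24 hours and grown 7 days at 30°C on medium lacking adenine and uracil. Random libraries had three technical output replicates.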

Substance | amyloid nucleation score
CSGIIRNMLWGV | inactive
CLSLYL | inactive
RNGMISQAYSVP | inactive
SCSMHFLVCEDYNRMLALRC | inactive
LVFLN | inactive
SGPRDSRLCRDSSVSGVYLS | inactive
SISWRYWKSI | inactive
VYNALNNSAVLQL | inactive
RLCWLNVDHGLLVNPPWGYR | inactive
FWSGIWSNTFRFYGAVIWPG | inactive
ESLATNQVDMFSLSVRIFGP | inactive
NCGRNRNPPTESCPEVGPRL | inactive
GLVWCFCLCSITSYIMVILF | inactive
CITSNVMRSSRLKLV | inactive
ISMHPERQVMMRLPCRMCCL | inactive
LSFYMVKGLKNKI | inactive
GRNCFGGARTAVGIRNTSPL | inactive
TPHFYLIYALGISLIFWFVE | inactive
HTHVSTTTGIFSDRICEW | inactive
FTPARRLSRLIVFCFG | inactive
RGYEQERLWSSVWHFYNHWL | 0.405 ± 0.23
WCVMPFNSCTTLMYKFSEN | 1.66 ± 0.071
TSVTSTSLSGSLSAV | inactive
NEFVSYNLLVTGGWSRCWYF | inactive

Substance | amyloid nucleation score
TFWYLFCDDDS | inactive
WVVWEM | inactive
MSLLGQ | inactive
LSGMMFAGPFLTCSLDCWML | inactive
TICLDLLDWEVEGPYNVVSG | inactive
ARYKGWTHNWPINHLIFLNS | -0.127 ± 1.1
NRYGGSAQGHPMWVTTSREW | inactive
VLIRWRYEAYLSHCGSPCAS | inactive
TSILEWVSFDGSM | inactive
MVIYSLHRTLIIICGRANLT | inactive
SSVRMRISFMINGRQTA | 0.833 ± 0.15
YLVSIRNNYRCEV | inactive
TGHMTDIYYELSHGVEPKGL | inactive
LADNIRFISN | inactive
QHLLYSPIEPIVPSVWDIVD | inactive
VMKPNIEFGN | inactive
YRKMRAEEDKWMVWVYSRRC | inactive
GLITWT | inactive
WRVLKADDYFFFWWASCFAY | inactive
VSRTSVSRRFYCIARMCSPV | inactive
NGEKLFSEDVVSYWVDVYSR | inactive
PRMRA | inactive
WVGLCFLRFQVHSTSDESVS | inactive
RGRMLDHGSS | inactive

Substance | amyloid nucleation score
WKTTMALRSVLPGGYLHFCV | inactive
RWYWDHVRIDTYVVHSRTWR | 0.979 ± 0.13
DKGVVPL | inactive
SGFPMVSIFESSI | inactive
ELSANTSFTNSHMTMTTKLF | inactive
VSVVNYKVVHSSAEKVFSFS | inactive
HRLCSHYVFTGCPSNMRQCF | 0.083 ± 0.28
FVWNERWKIRLYLMSFGRGR | 2.35 ± 0.065
SFRHKYYEHRPTIWDMDCDL | inactive
YLRAAIL | inactive
FCKMVFLGTAVRCVVKLQSV | inactive
SLSNVGLANFLFSRPSLRSY | inactive
PTSFQYRCVSI | inactive
MIRWTWNRKHTII | inactive
QGAMVD | inactive
GIFTLFYYVMMKLIFDFFTV | inactive
YVPFNFMKHVIATVLSGV | 0.014 ± 0.77
YNGLGMIVPMFLVHPLK | inactive
MFVSLMKQFM | 0.931 ± 0.1
CSRLAQWFMLVSF | inactive
GVNIRCLRDDDSRLLKERSC | inactive
TRHWDVRSRISRTLVCFGLK | inactive
GWVYWVSMRVIPNRIVINDP | inactive
WWSKVMYRSTPTLNAFKDRQ | inactive

Substance | amyloid nucleation score
FSLFLTLFHFFHTRLAACLL | inactive
SYMQMTELKEAP | inactive
SSNILFVIFIAY | 1.08 ± 0.21
KALSCSRSFAVKVVYTQDP | inactive
IRCNRYVSL | inactive
NLNSFSGAFVLIWGATVHFC | 1.96 ± 0.075
FYAYVSVDTVCSVAICLICT | inactive
CRFKGCWYSRTLRRRRSVIV | inactive
IGGRTDNSELTCTRGMRFLC | inactive
MPNYNLSGLNWVRCG | inactive
SEGSNNVSCSI | inactive
SVFFPVEFTFRVGETLCCFF | 3.01 ± 0.062
NVGNRCYWWVLMARLLSIFR | inactive
FRFYLCDDFMCNVLHYQPRN | 3.19 ± 0.073
CVTVNIELLTWITACGNFTL | 1.62 ± 0.075
TGFLSIHLSWTYTCYMIVER | inactive
NWHDYSSGVGLKIRGECMNV | inactive
HIYIVKSVCILCIWPCGLTE | 2.86 ± 0.058
LFKGGDSICYSHWSVRSSRK | 1.09 ± 0.12
LLWVQQHWLKNDTLVTYKAK | inactive
VLYGRSGVVEANRC | inactive
HGIGFDDVASG | -0.045 ± 0.88
SYLYVTKYVLFDR | inactive
LKVFKWKISTLMKAAQPIAS | inactive

Substance | amyloid nucleation score
NCLGPWPCLTTILYLRSLEF | inactive
VFGFMCNYSFVATSRLCVIG | inactive
TFLNSNFFPIWLVVCASA | inactive
SQVGMSPYRSCSINKWCPGI | inactive
WDVYLPLVMSLK | 1.29 ± 0.12
YVEHAYIRWRSVCKSIFLFS | inactive
IMSRCISTHLG | inactive
YVIMAFLAV | inactive
DLKTWSMLSFFGMYATYLIK | inactive
CFMTS | inactive
TFWLH | 0.156 ± 0.88
FSFNAG | inactive
GASVGFEVHCNFVVNLNVQH | 2.18 ± 0.066
KSSWAIKSSNGTW | inactive
FMGFFYNFYVPKLKSSVHNE | 0.303 ± 0.34
QRVMFFCAMSLNKPRSV | inactive
RITSDALG | inactive
QQNQVSIDGCWV | inactive
LGTWFWVVVG | inactive
DCMSHLLF | inactive
NNRLMYTSHISHACSYQMLK | inactive
WLWTLYDG | inactive
NWSLSKSRHIPLGTCRGISY | -0.201 ± 0.84
